Data published in patent publication US20190010233A1 (JIANGSU HYAMAB PHARMACEUTICAL, published 2019).
Residue numbers refer to the chain shown, from its start. One block for each binder: values may come before it.

Experiments:
[1] = target: T1, human PD-L1^ECD-hFc protein (human, UniProt Q9NZQ7 19-239, biotinylated in the PD-1 binding ELISA (Table 3) and in the Octet assay (Table 12)); assay: ELISA, 0.01 nM mAb
T1 construct: The plain and the biotinylated protein are kept as one molecule; also called PD-L1-hFc; Immunogen A; not shown: human IgG Fc fragment (hFc)
T1 sequence (Q9NZQ7 19-239): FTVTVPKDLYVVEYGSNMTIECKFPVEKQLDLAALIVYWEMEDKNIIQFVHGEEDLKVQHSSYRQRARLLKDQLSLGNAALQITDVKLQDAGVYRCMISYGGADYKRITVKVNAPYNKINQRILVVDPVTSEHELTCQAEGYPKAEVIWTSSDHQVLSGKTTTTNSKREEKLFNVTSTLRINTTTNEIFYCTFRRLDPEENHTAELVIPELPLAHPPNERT
Procedure: (§1) 100 μL of the diluted recombinant proteins were added to each well of 96-well plate. The plates were sealed with plastic film and incubated at 4° C. overnight. The plates were washed twice with wash buffer (PBS+0.01% (v/v) Tween20), and incubated with blocking buffer (PBS+0.01% (v/v) Tween20+1% (w/w) BSA) at room temperature for 2 hours. The blocking buffer was aspirated away, and 100 μL of purified anti-PD-L1 antibodies were added to each well and incubated for 2 hours at 37° C. The plates were washed three times with wash buffer (PBS+0.01% (v/v) Tween20). HRP-conjugated secondary antibody (Sigma) was added to each well and incubated for 2 hours at 37° C. After the plates were washed three times with wash buffer, 100 μL TMB substrate were added to each well, and the plates were incubated for 30 minutes at room temperature. 100 μL stop solution (0.1N HCl) was added to each well to stop the reaction.

[2] = target: T1, human PD-L1^ECD-hFc protein; assay: ELISA, 0.001 nM mAb
Procedure: as §1

[3] = target: T1, human PD-L1^ECD-hFc protein; assay: ELISA, 0.0001 nM mAb
Procedure: as §1

[4] = target: T2, full length human PD-L1 on cells (human, UniProt Q9NZQ7 19-290); assay: cell-based or functional assay
T2 sequence (Q9NZQ7 19-290 limits assumed): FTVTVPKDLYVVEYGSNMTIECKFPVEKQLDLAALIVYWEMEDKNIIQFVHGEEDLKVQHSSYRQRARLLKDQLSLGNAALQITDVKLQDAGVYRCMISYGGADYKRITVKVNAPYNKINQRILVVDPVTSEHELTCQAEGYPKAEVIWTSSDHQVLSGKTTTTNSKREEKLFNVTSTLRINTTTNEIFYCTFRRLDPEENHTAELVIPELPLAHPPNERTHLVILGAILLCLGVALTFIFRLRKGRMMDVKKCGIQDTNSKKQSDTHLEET

[5] = target: T1, human PD-L1^ECD-hFc protein; assay: ELISA, 0.370 nM mAb
Procedure: as §1

[6] = target: T3, cyno PD-L1^ECD-hFc protein (cyno, UniProt G7PSE7 19-239); assay: ELISA, 0.370 nM mAb
T3 construct: also called Cyno Monkey PD-L1^ECD-hFc
T3 sequence (G7PSE7 entry or part of it limits assumed): as the sequence (Q9NZQ7 19-239) above, with A33T, A34S, S62N, R68Q, Q82R, F173L, T185A, T192I, H215L counted along it
Procedure: as §1

[7] = target: T1, human PD-L1^ECD-hFc protein; assay: ELISA, 3.333 nM mAb
Procedure: as §1

[8] = target: T3, cyno PD-L1^ECD-hFc protein; assay: ELISA, 3.333 nM mAb
Procedure: as §1

[9] = target: T2, full length human PD-L1 on cells; assay: FACS CHO-K1-hPD-L1, 3.70 nM mAb
Procedure: (§2) Other CHO-K1 were stably transfected with a pIRES plasmid containing the nucleic acid sequence encoding full length cyno PD-L1 to generate CHO-K1 cells stably expressing cyno PD-L1 (herein referred to as CHO-K1-cPD-L1 cells). […] The culture media was aspirated, and the cells were washed twice with HBSS (Hanks Balanced Salt Solution, Invitrogen). The cells were treated with enzyme-free cell dissociation solution (Versene solution, Invitrogen) and collected. The cells were then washed twice with HBSS, cell counts were determined, and cells were resuspended with HBSS at 2×10⁶ cells/mL. Goat serum was added to the cell suspension to a final concentration of 1%, and the cells were blocked for 30 minutes on ice and then washed twice with HBSS. The cells were collected after centrifugation and resuspended in FACS buffer (HBSS+1% BSA, v/v) at 2×10⁶ cells/mL. 100 μL of the cell suspension were then added to each well of 96-well plate. 100 μL of purified anti-PD-L1 antibodies from Example 2 were added to each well of the 96-well plate and incubated for 2 hours on ice. […] The samples were washed three times with FACS buffer, and 100 μL fixation buffer (4% paraformaldehyde v/v) were added to each well and incubated for 10 minutes. The cells were then washed twice with FACS buffer and resuspended in 100 μL FACS buffer. The mean fluorescence intensity (MFI) was determined using FACS Calibur (BD), and the results are shown in FIGS. 7-8 and in Tables 10-11.

[10] = target: T4, full length cyno PD-L1 on cells (cyno, UniProt G7PSE7 19-290); assay: FACS CHO-K1-cPD-L1, 3.70 nM mAb
T4 construct: also called CHO-K1-cPD-L1
T4 sequence (G7PSE7 entry or part of it limits assumed): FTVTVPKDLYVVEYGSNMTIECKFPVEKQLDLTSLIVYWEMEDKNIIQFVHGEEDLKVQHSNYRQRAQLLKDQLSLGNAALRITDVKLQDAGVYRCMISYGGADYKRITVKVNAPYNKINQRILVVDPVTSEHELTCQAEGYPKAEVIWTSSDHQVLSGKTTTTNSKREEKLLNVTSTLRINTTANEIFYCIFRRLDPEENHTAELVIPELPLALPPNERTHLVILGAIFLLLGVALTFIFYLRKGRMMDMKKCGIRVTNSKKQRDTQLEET
Procedure: as §2

[11] = target: T2, full length human PD-L1 on cells; assay: FACS CHO-K1-hPD-L1, 33.33 nM mAb
[12] = target: T1, human PD-L1^ECD-hFc protein; assay: ELISA receptor-ligand blocking assay: PD-L1^ECD-hFc coated on the plate, antibody titrated, blocked ligand biotinylated B7.1^ECD, HRP-streptavidin, inhibition rate (%)
Procedure: Purified PD-L1^ECD-hFc (Example 2) was diluted with PBS to a final concentration of 1.0 μg/mL, and 100 μL diluted PD-L1^ECD-hFc were added to each well of a 96-well plate that was then sealed with plastic film and incubated at 4° C. overnight. The plate was washed twice with wash buffer (PBS+0.01% (v/v) Tween 20) and incubated with blocking buffer (PBS+[…]) at room temperature for 2 hours. The blocking buffer was aspirated, and 50 μL purified anti-PD-L1 antibodies from Example 2 were added to each well of 96-well plate. […] The plate was washed three times with wash buffer (PBS+0.01% (v/v) Tween 20). 100 μL HRP-conjugated streptavidin (Sigma) were then added to each well and incubated at 37° C. for 2 hours. The plate was then washed three times with wash buffer, and 100 μL TMB substrate were added to each well. After 30 minutes of incubation at room temperature, the reaction was stopped by adding 100 μL stop solution (0.1N HCl).

OD450 nm [1]: 0.4
OD450 nm [2]: 0.25
OD450 nm [3]: 0.21
IFN-γ (pg/mL), MLR, 0.001 µg/mL mAb [4]: 4730 pg/mL
IFN-γ (pg/mL), MLR, 0.01 µg/mL mAb [4]: 8100 pg/mL
IFN-γ (pg/mL), MLR, 0.1 µg/mL mAb [4]: 9060 pg/mL
IFN-γ (pg/mL), MLR, 1 µg/mL mAb [4]: 12400 pg/mL
B1: chimeric anti-PD-L1 antibody 192D9E7 (antibody, V domains shown)
VH: EVQLVESGGGLVQPGGSLRLSCAASGFTFSSYWMSWVRQAPGKGLEWVADIKQDGSEKYYVDSVKGRFTISRDNAKNSLYLQMNSLRAEDTAVYYCTRDKPHWGGVMDAWGQGTSVTVSS
VL: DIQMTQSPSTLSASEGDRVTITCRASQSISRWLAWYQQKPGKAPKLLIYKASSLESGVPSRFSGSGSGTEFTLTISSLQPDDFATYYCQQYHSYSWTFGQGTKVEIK
notes: Purified from hybridoma of Harbour H2L2 mice: human variable regions, rat constant regions

OD450 nm [5]: 1.19
OD450 nm [6]: 1.19
OD450 nm [7]: 1.5
OD450 nm [8]: 1.5
Mean fluorescence intensity [9]: 203
Mean fluorescence intensity [10]: 142
Mean fluorescence intensity [11]: 194
B2: chimeric anti-PD-L1 antibody 105C5D7 (antibody, V domains shown)
VH: EVQLVESGGGLVQPGGSLRLSCAASGFTFSSYWMSWVRQAPGKGLEWVANIKQDGNEKYYVDSVKGRFTISRDNAKNSLYLQMNSLRAEDTAVYYCARNIKWGDAFDIWGQGTMVTVSS
VL: DIQMTQSPSSLSASVGDRVTITCRASQSISSYLNWYQQKPGKAPKLLIYAASSLQSGVPSRFSGSGSGTDFTLTISSLQPEDFAIYSCQQSYSIPLTFGGGTKVEIK
notes: as for B1

OD450 nm [1]: 0.38
OD450 nm [2]: 0.24
OD450 nm [3]: 0.2
IFN-γ (pg/mL), MLR, 0.001 µg/mL mAb [4]: 6040 pg/mL
IFN-γ (pg/mL), MLR, 0.01 µg/mL mAb [4]: 6280 pg/mL
IFN-γ (pg/mL), MLR, 0.1 µg/mL mAb [4]: 8760 pg/mL
IFN-γ (pg/mL), MLR, 1 µg/mL mAb [4]: 12600 pg/mL
IC50 (read off the curve) [12]: ~0.4 nM
B3: chimeric anti-PD-L1 antibody 127D2F3 (antibody, V domains shown)
VH: EVQLVESGGGLVQPGGSLRLSCVASGFTFSSYWMSWVRQAPGKGLEWVANIKQDGSEKYYVDSVKGRLTISRDNAKNSLYLQMKSLRAEDTAVYYCARDPIYSSYFDYWGQGILVTVSS
VL: B2 VL with S31N, I85A, S87Y, S93G, L96F, G100P, E105D
notes: as for B1

OD450 nm [5]: 1.29
OD450 nm [6]: 1.29
OD450 nm [7]: 2.03
OD450 nm [8]: 2.03
Mean fluorescence intensity [9]: 113
Mean fluorescence intensity [10]: 126
Mean fluorescence intensity [11]: 116
B4: chimeric anti-PD-L1 antibody 73D3G2 (antibody, V domains shown)
VH: EVQLVESGGGLVQPGGSLRLSCAASGFTFNTYWMNWVRQAPGRGLEWVANIKQDGGEKYYVDSVKGRFTISRDNAKNSLYLQMNSLRAEDTAMYYCARDGRSWYPDAFDIWGQGTVVTVSS
VL: DIQMTQSPSTLSASVGDRVTITCRASQSISTWLAWYQQKLGKAPKLLIYEVSILESGVPSRFSGSGSGTEFTLTISSLQPDDFATYYCQQYHSFSSFGGGTRVEIK
notes: as for B1

OD450 nm [5]: 1.39
OD450 nm [6]: 1.5
OD450 nm [7]: 1.73
OD450 nm [8]: 2
Mean fluorescence intensity [9]: 199
Mean fluorescence intensity [10]: 139
Mean fluorescence intensity [11]: 225
B5: chimeric anti-PD-L1 antibody 78A11F6 (antibody, V domains shown)
VH: EVQLVESGGGLVQPGGSLRLSCAASGITFSSYWMSWVRQTPGKGLEWVANIKQDGSEKYYVKSVKGRFTISRDNAKNSLYLQMNSLRAEDTAVYYCVRDRAVPGTGAFDIWGQGTMVIVSS
VL: DIQMTQSPSTLSASVGDRVTITCRASQSISNWLAWYQQKPGKAPKLLIYKASSLESGVPSRFSGSGSGTEFTLTISSLQPDDFATYYCQQYDSSLFTFGQGTKLEIK
notes: as for B1

OD450 nm [1]: 0.28
OD450 nm [2]: 0.21
OD450 nm [3]: 0.2
IFN-γ (pg/mL), MLR, 0.001 µg/mL mAb [4]: 3340 pg/mL
IFN-γ (pg/mL), MLR, 0.01 µg/mL mAb [4]: 3390 pg/mL
IFN-γ (pg/mL), MLR, 0.1 µg/mL mAb [4]: 7480 pg/mL
IFN-γ (pg/mL), MLR, 1 µg/mL mAb [4]: 16400 pg/mL
IC50 (read off the curve) [12]: ~0.5 nM
B6: chimeric anti-PD-L1 antibody 73G11B3 (antibody, V domains shown)
VH: B5 VH with A23V, A24V, I27F, K62D, F68L, F108L, I118T
VL: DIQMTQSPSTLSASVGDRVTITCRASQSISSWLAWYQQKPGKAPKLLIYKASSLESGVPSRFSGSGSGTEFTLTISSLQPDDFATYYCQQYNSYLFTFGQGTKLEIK
notes: as for B1
